Assay: Urokinase activity after foam drying and storage
Format: physicochemical
Description: (7) Freeze-dried samples of Urokinase were rehydrated with 2 ml of 40 wt % sucrose. The solutions were then transferred to 20 ml sterilized glass vials for future preservation by drying. Before drying, the vials were covered with gray slotted rubber stoppers. The vials were dried inside a vacuum chamber. The vials were sitting on the surface of a stainless steel shelf inside the chamber. The shelf temperature was controlled by circulating ethylene glycol/water antifreeze at a controlled temperature inside the shelf. Before the vacuum was applied the shelf temperature was decreased to 5° C. Then the hydrostatic pressure inside the chamber was decreased to 0.5 Torr. Under such conditions, the suspension boiled for 30 min. […] Visually, under these experimental conditions, stable dry foams were formed inside the vials within 3 hours. After an additional 12 hours of drying at room temperature, the temperature was increased to 45° C. and maintained for an additional 24 hours. After that the chamber was filled with dry N2 gas, the rubber stoppers were pushed down and the vials were sealed with aluminum crimp seals.
The samples were assayed immediately after drying and after 30 days of storage at 40° C. After drying the Urokinase, activity was 93% of the initial activity. […]

Urokinase
Urokinase activity, % of the initial activity (after 30 days of storage at 40° C.): 90% | Urokinase activity, % of the initial activity (immediately after drying (40 wt % sucrose, maximum 45° C.)): 93%
